Source: the nanobody polyreactivity screen of Harvey et al. (2022)

Assay: yeast display, Sf9 membrane polyspecificity reagent, FACS + sequencing; frameworks hold sequencing errors
In short: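 After 36–48 hours of galactose induction, yeast (Saccharomyces cerevisiae BJ5465) displaying a synthetic nanobody library were stained at 4 °C for 1 hour with 10% biotinylated, detergent-solubilized Sf9 membrane reagent. Streptavidin microbeads enriched the stained cells before FACS sorting into low and high (top ~1%) gates on anti-HA and streptavidin fluorescence. Each clone's polyreactivity label reflects its gate of origin.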

| Sequence | polyreactivity (PSR sort gate) |
| --- | --- |
| QVQLVESGGGLVQAGGSLRLSCAASGRIFGQNVIGWYRQAPGIERELVAAITSAGRTYYADSVKGRFTISRDNAKNPVYLQMNSLKPEDTAVYYCAAQYPINYFTGYGYWGQGTQVTVSS | high polyreactivity |
| QVQLVESGGGLVQAGGSLRLSCAASGSIFHINAMGWYRQAPGKERELVADISQRGGSTYYADSVKGRVTISRDNAKNTVYLQMNSLKPEDTAVYYCAVVHVFYAVSYFSFYTYEYWGQGTQVTVSS | low polyreactivity |
| QVQLVESGGGLVQAGGSLRLSCAASGIIFGAYAMGLYRQAPGQERVFVAAISRSGSRTYYADSVKGRFTISRDTAKNTVYLQMNSLKPEDTAVYYCAAESPVLYYWGQGTQVTVSS | high polyreactivity |
| QVQLVESGGGLVQAGGSLRLSCAASGSTFVWYAMGWYRQAPGKERELVASITSGGNTNYADSVKGRFTISRDNAKNTVYLQMNSLKPEDSAVYYCNAVRSQRSLSSRYYYWGQGTQVTVSS | low polyreactivity |
| QVQLVESGGGLVQAGGSLSLTCAASGRILYRYAMGWYRPAPGKERDLVAAISWSGGSTYYADSVKGRFTISRDNAKNTVYLQLYSLKPEDTAVYYCNAVRASRSGGFDYWGQGTQVTVSS | high polyreactivity |
| QVQLVESGGGLVQAGGSLRLSCAASGSNSPTMLMGGYRKAPGKERELVAAISGGGRTNYADSVKGRFTISRDNAKNTVYLQMNSLKPEETAVYYCAAGGYYQRTRGDWGQGTQVTVSS | high polyreactivity |
| QVQLQESDGGLVQAGGSLRLTCAASGSISPQYYMGWYRQAPGQEREFVAISKGTTTYYADSVKGRLTISRVNAKNTVYLQMNSLKPEDTAVYCCAAGRWLQKVHAYWDQGTQVTVSS | low polyreactivity |
| QVQLVESGGGLVQAGGSLRLSCAASGFTFQSYAMGWYRQAPGKESELVAAISWSGGSTYYADSVKGRFTISRDNAKNTVYLEMNSLKPEDTAVYYCAADAPRSYRFGYWGQGTQVTVSS | high polyreactivity |
| QVKLVESAVRLVQAGGSLRLSCAASASTLYRYSMGLYRQAPGKERELVAAISSSGGSSYYADSVKGRFTISRDNAKNTVYLQMNRLKQEDTAVYYCSAAALRTIGAGYRYGNWGQGTQVTVSS | high polyreactivity |
| QVQLVESGGGLVQAGGSLRLSCAASGRIFTYYAMGWYRQAPGKERELVAAISSGGSTYYADSGKGRFTISRDNAKNTVSLQMNSLKPEDTAVYYCAADTIYYFPYDYWGQGTQVTVSS | high polyreactivity |
| QVQLVESGGGLVQAGGSLRLSCAASGSTFPYNAMGWYRQAPGKERELVADISGDSGSTYYADSVKGRFTISRDNAKNTVYLQMNSLKPEDTAVYYCAGEGVHYAGDYGTGYDYWGQGTQVTVSS | low polyreactivity |
| QVQLVESGGVLVQAGGSLRLSCAASRSTFTSYAMGWSRQAPGKERELVADISFSGGSTYYADSVKGRFTISRDIAKNSVYSQMNRLTPEDTAVYSCAARIYKRYYWGQGTQVTVSS | high polyreactivity |
| QVQLVESGGGLVQAGGSLRLICAASGSIFITYDMGWYRQAPGKERELVATISTTGGTTYYADSVKGRFTISRDNAKNTVYLQMNSLKPEDTAVYYCATAGPPRGYYAPITLDDYWGQGTQVTVSS | low polyreactivity |
| QVQLVESGGGLDQAGGSLRLSCAASGGIFQKYAMGWYRQAPGQERELVAAISYSTTRTYYADSVKGRFTISRDNAKKTVYLQMNSLKPEDTAVYYCAARGYFWSSYKYDYWGQGTQVTVSS | high polyreactivity |
| QVQHVESGGGLVQAGGSLRLSCAASGLILVYYAMGWYRQAPGKERELVAAITPGGSTKYADSVKGRFTISRDNAKNTVYLQMNSLKPEDTAVYYCAVDGDCHEPGNYIYEYDYWGQGTQVTVSS | low polyreactivity |
| QVQLVESGGGLVQAGGSLRLSCAASGFIFNKYAMGWYRQAPGKERELVATIRRDGSTNYADSVKGRFTISRDNAKNTVYLQMNSQKPEDTAVYYCAVRPYYWSRDYYWGQGTQVTVSS | high polyreactivity |
| QVQLVESGGGLVQAGGSLRLSCAASGSIFYYYAMGWYRQAPGKERELVAAINSGVSTYYADSVKGRFTISRDNAKNTVYLQMNSLKPEDTAVYYCDATGHNLYGSWFSWTPDTYDYWGQGTQVTVSS | low polyreactivity |
| QVQLVESGGGLVQAGGSLRLSCAASGSTFYDYAMGWYRQAPGKERELVASISISGGSTYADSVKGRFTISRDNAKNTVYLQMNSLKPEDTAVYYCNAKNYSWDDYYWVPDYEYWGQGTQVTVSS | low polyreactivity |
| QVQLVESGGGLVQAGGSLRLSCAASGLIFYWYAMGWYRQAPGKERELVAAITWSGGITYYADSVKGRFTISRDNAKNTVYLQMNSLKPEDTAVYYCAADDDYGDVTYDYWGQGTQVTVSS | low polyreactivity |
| QVQLVESGGGLVQAGGSLRLSCAASGRIFWSNAMGWYRQAPGKERELVAAIRWSGGSTYYADSVKGRCTISRDNAKTTVYLQMNSLKPEDTAVYYCAASPYWSDWTKVDSWGQGTQVTVSS | low polyreactivity |
| QVQLVEAGGGLVQAGGSLRLSCAASGRIFYQNTMGWYIQAPGKERELVAAISKSGGRTYYADSVKGRFTISRDNAKNTVYLQMNSLKPEDTAVYYCDQGYASEMDYWGQVTQVTVSS | high polyreactivity |
| QVQLVESGGGLVQAGGSLRLSCAASGRTLGYYAMGWYRQAPGKERELVAAISGSGGITYYADSVKGRFTISRDNAKNTVYLQMNSLKPEDTAVYYCNVDPTAKWFNYDSWGQGTQVTVSS | low polyreactivity |
| QVQLVESGGGLVQAGGSLRLSCAASGGTFWKNAMGWYRQAPGKERELVAAIRSSSGNTYYADSVKGRFTISRDNAKNTVYLQMNSLKPEDTAVYSCARRYYDYGYDYYWGQGTQVTVSS | high polyreactivity |
| QVQLVESGGGLVQAGGSLRLSCAASGLTFYPYAMGWYRQAPGKERELVAAINWSGTTTYYADSVKGRFTISRDNAKNTVYLQMNSLKPEDTAVYYCAAHYTTFIPSPDGDYLGQGTQVTVSS | low polyreactivity |
| QVQLVESGGGLVHAGGTLRLTCAASGFIFKRYTLGWYRQAPGQERELFATINRNGGNTYYADSVKGRFTISRDNAKNTVYLQMNILKPEDTSVYYCNARYWRAQGWPGYDYWGQGTQVTVSS | high polyreactivity |
| QVQLVESGGGLVQAGGSLRLSCAATGSIFFINAMGWYRQAPGKERELVAAITWDGGSTYYADSVKGRFTISRVNAKNTVYLQMNSLKPEDTAVYYCAAVADYYDFISPPLDYWGQGTQVNVSS | low polyreactivity |
| QVQLLESGGGLVQAGGSVRLSCAASGFTYRYYAMGWYRQEPGKERELVASISFSGTRTYYADSVKGRFTISRDNAKNTVFLQMNSLKPHDTAVDYCNACLYSRYEFDYWGQGSQVTVSS | high polyreactivity |
| QVQLVESGGGLVQAGGSLRLSCAASGRIFYINAMGWSRQAPGKERELVAAITEGGVSTYYADSVKGRFTISRDNAKNTVYLQMNSLKPEDTAVYYCNTTGGPDGIVIYEYWGQGTQVTVSS | low polyreactivity |
| QVQLVESGGRLVQAGGSLRLSCAASGFTFDSYDMGWYRQEPGKERELVAAITWSGGSTYYADSVKGRFTISRDNAKNTVYLQMNSLKPEDTAVYYCNADTGTYWVPWYHDGYDYWGQGTQVTVSS | low polyreactivity |
| QVQLVESGGGLVQAGGSLRLSCAASGSTFQVYAMGWYRQAPGKERELVASITSGGSTYADSVKGRFTISRDNAKNTVYLQINSLKPEDTAVYYCAAGGYFYPYTYDYWGQGTQVTVSS | low polyreactivity |
